Series [1] concerns CT2A cells and GSC272 cells. Nature of the series: T cell-mediated cytotoxicity assay (LDH release). The format is cell-based, human and mouse. Particulars: TFPI2 recombinant protein 20 ng/ml; AS1517499 25 nM. The method, then: T cell-mediated cytotoxicity was determined by Cytotox96 non-radioactive cytotoxicity assay kit (Promega, #G1780) based on the release of lactate dehydrogenase (LDH). After expansion and activation, mouse primary CD8^+ T cells or human JURKAT T cells were collected. About 10^5 T cells were co-cultured with SIM-A9 microglia or PrhMG (1:1 ratio) treated with TFPI2 recombinant protein in the presence or absence of STAT6 inhibitor AS1517499 for 24 hrs. T cells (effector cells) were then collected for further co-culturing with CT2A cells or GSC272 cells (target cells) at different ratios (10000:1000, 5000:1000, 2500:1000, 1250:1000, 620:1000, 310:1000, 160:1000, 80:1000, 40:1000, 20:1000) for 5 hrs. Experimental groups and corresponding control groups, including effector cell spontaneous LDH release, target cell spontaneous LDH release, target cell maximum LDH release, volume correction control, and culture medium background control were set up following the manufacturer's instructions to evaluate T cell-mediated cytotoxicity on GSCs. Optical density (OD) was measured by a Biotek Synergy 2 SL Microplate Reader. The cytotoxicity was calculated by the formula: (experimental OD value-effector spontaneous OD value-target spontaneous OD value)/(target maximum OD value-target spontaneous OD value).

For another series, the system named is STAT6. The experiment in a line: Immunoblot and flow cytometry for P-STAT6 in microglia. The format is cell-based, human and mouse. Conditions: TFPI2 recombinant protein, indicated concentrations and time points. As for the experimental part: (§1) The protein expression in cells was determined by western blotting analysis (Ref. 61; incorporated by reference in its entirety). Cells were homogenized in RIPA lysis buffer containing phosphatase/protease cocktail inhibitors (Cell Signaling Technology, #5870). The protein concentration was determined by BCA Protein Assay Kit (Thermo Fisher Scientific, #P123225). Protein solution was mixed with the Leammli sample buffer and heated at 95° C. before loading to SurePAGE gels (GenScript, #M00653). The gels were run at a constant voltage of 80 V and then transferred to 0.2 μm nitrocellulose membrane (Bio-Rad, #1620112) using the Trans-Blot Turbo system (Bio-Rad) with a preprogrammed standard protocol for 30 min. Nitrocellulose membrane was incubated with 5% dry milk to block any unspecific staining. […]
For orientation: In western blotting, separated proteins are transferred to a membrane and probed.

For series [2], the system named is GSC262, GSC23 and GSC20 cells. The experiment in a line: Immunoblot for CD133 and SOX2 in GSCs. The format is cell-based, human. Particulars: TFPI2 recombinant protein at indicated concentrations for 24 hrs. As for the experimental part: as §1
Series [3] concerns the target T1, CD51 (integrin alpha V, ITGAV) on human microglia (HMC3 cell line, primary human microglia PrhMG) (human, UniProt P06756 31-1048).
T1 construct: whole, on cells; Endogenous protein of human microglia; also called Integrin aV/CD51
The experiment in a line: IP-MS: membrane proteins of PrhMG incubated with TFPI2 recombinant protein, immunoprecipitated with TFPI2 antibody, LC-MS; CD51 is one of the enriched membrane protein candidates. As for the experimental part: Permeabilized cells were centrifuged for 15 min at 16,000 g to remove the supernatant containing cytosolic proteins. The cell pellets were then incubated with 0.5 ml solubilization buffer at 4° C. for 30 min with constant mixing. Solubilized membrane and membrane-associated proteins were isolated by centrifuging at 16,000 g for 15 min at 4° C. Extracted membrane-associated proteins were proceeded for IP-MS pull-down assay. A total of […] cell membrane lysate was incubated with […] TFPI2 antibody (Abcam, #ab186747) or IgG control (Cell Signaling Technology, #2729) for 12 hrs with gentle rotation at 4° C. […] Protein A/G PLUS-Agarose (#sc-2003, Santa Cruz Biotechnology) were mixed with each sample on ice. The lysate bead mixture was incubated at 4° C. under rotary agitation for 4 hrs. The tubes were centrifuged to remove supernatant. The beads were then washed in lysis buffer three times to remove non-specific binding. After removing wash buffer, the complex was washed with pre-urea wash buffer (50 mM Tris pH 8.5, 1 mM EGTA, 75 mM KCl) to remove all residual supernatant. […] IP pulled-down samples were analyzed by LC-MS/MS using a Dionex UltiMate 3000 Rapid Separation nanoLC coupled to the Orbitrap Elite Mass Spectrometer (Thermo Fisher Scientific Inc, San Jose, CA). […]

T1 sequence (P06756 31-1048): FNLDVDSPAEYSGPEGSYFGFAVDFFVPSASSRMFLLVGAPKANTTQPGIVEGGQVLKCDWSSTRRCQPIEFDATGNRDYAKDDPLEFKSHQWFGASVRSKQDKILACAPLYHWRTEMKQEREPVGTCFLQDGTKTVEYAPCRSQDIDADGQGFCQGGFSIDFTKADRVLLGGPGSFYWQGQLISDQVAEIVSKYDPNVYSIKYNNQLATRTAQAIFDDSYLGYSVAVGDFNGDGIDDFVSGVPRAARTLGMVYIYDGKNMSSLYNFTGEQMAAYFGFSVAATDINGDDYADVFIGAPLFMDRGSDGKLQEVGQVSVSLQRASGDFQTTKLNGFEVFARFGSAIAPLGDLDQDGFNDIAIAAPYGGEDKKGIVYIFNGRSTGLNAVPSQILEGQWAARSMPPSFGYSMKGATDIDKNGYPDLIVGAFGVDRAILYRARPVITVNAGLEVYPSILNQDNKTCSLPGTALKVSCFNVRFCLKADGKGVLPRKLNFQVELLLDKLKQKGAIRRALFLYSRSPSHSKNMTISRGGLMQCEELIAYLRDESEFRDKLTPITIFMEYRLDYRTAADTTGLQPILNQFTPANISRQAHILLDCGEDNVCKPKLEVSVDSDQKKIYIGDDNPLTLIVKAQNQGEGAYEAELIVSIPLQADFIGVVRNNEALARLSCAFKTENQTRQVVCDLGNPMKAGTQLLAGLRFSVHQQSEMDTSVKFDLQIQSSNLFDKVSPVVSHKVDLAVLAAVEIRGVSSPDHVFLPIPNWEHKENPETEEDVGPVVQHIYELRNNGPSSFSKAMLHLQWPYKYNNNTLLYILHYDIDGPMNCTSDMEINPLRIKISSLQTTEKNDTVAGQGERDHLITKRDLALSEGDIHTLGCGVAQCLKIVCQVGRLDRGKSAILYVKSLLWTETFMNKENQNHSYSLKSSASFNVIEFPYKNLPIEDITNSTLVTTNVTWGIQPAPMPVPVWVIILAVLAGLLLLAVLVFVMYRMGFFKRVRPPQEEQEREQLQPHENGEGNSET

Turning to `NC(=O)c1cnc(NCCc2ccc(O)c(Cl)c2)nc1NCc1ccccc1` [AS1517499], the “suppression of T cell-mediated tumor cell cytotoxicity by TFPI2-polarized microglia” value in series [1] is recorded as “rescued”.

B1: TFPI2 recombinant protein (tissue factor pathway inhibitor 2; BioVision, #7481-10) (ligand, UniProt P48307 23-235, looked up)
chain: DAAQEPTGNNAEICLLPLDYGPCRALLLRYYYDRYTQSCRQFLYGGCEGNANNFYTWEACDDACWRIEKVPKVCRLQVSVDDQCEGSTEKYFFNLSSMTCEKFFSGGCHRNRIENRFPDEATCMGFCAPKKIPSFCYSPKDEGLCSANVTRYYFNPRYRTCDAFTYTGCGGNDNNFVSREDCKRACAKALKKKKKMPKLRFASRIRKIRKKQF
notes: Bought recombinant protein added to microglia at 20 ng/ml; also called recombinant TFPI2; secreted TFPI2
Consider B1, for which the “phosphorylation of STAT6 in human and mouse microglia” value in the series with STAT6 is “increased”. Also, in series [2], the “expression of stemness-associated factors CD133 and SOX2” value is listed as “increased”. In addition, the “fold change in TFPI2 IP group versus control IgG group” value in series [3] was at least 2 fold.
